{"source": "patent US8198236B2", "about": "“Methods and compositions for the treatment of cancer” (Washington University, priority 2007, dated 2012)", "molecules": {"B1": {"name": "Mesd: Recombinant full-length mouse Mesd expressed in E. coli, N-terminal polyhistidine tail, lacking the signal peptide (protein)", "chain": "ADTPGEATPPPRKKKDIRDYNDADMARLLEQWEKDDDIEEGDLPEHKRPSAPIDFSKLDPGKPESILKMTKKGKTLMMFVTVSGNPTEKETEEITSLWQGSLFNANYDVQRFIVGSDRAIFMLRDGSYAWEIKDFLVSQDRCAEVTLEGQMYPGKGGGSKEKNKTKPEKAKKKEGDRKPRASKEDNRAGSRREDL", "modifications": "left off: small tags and cut ends", "notes": "Recombinant full-length mouse Mesd expressed in E. coli, N-terminal polyhistidine tail, lacking the signal peptide"}}, "key": {"LRP6 [1]": {"target": "T1, LRP6 (Homo sapiens, UniProt O75581)", "T1 construct": "expressed in transfected cells; host or cells: human HT1080 cells, retroviral vector pLNCX2", "T1 sequence (O75581 20-1613)": "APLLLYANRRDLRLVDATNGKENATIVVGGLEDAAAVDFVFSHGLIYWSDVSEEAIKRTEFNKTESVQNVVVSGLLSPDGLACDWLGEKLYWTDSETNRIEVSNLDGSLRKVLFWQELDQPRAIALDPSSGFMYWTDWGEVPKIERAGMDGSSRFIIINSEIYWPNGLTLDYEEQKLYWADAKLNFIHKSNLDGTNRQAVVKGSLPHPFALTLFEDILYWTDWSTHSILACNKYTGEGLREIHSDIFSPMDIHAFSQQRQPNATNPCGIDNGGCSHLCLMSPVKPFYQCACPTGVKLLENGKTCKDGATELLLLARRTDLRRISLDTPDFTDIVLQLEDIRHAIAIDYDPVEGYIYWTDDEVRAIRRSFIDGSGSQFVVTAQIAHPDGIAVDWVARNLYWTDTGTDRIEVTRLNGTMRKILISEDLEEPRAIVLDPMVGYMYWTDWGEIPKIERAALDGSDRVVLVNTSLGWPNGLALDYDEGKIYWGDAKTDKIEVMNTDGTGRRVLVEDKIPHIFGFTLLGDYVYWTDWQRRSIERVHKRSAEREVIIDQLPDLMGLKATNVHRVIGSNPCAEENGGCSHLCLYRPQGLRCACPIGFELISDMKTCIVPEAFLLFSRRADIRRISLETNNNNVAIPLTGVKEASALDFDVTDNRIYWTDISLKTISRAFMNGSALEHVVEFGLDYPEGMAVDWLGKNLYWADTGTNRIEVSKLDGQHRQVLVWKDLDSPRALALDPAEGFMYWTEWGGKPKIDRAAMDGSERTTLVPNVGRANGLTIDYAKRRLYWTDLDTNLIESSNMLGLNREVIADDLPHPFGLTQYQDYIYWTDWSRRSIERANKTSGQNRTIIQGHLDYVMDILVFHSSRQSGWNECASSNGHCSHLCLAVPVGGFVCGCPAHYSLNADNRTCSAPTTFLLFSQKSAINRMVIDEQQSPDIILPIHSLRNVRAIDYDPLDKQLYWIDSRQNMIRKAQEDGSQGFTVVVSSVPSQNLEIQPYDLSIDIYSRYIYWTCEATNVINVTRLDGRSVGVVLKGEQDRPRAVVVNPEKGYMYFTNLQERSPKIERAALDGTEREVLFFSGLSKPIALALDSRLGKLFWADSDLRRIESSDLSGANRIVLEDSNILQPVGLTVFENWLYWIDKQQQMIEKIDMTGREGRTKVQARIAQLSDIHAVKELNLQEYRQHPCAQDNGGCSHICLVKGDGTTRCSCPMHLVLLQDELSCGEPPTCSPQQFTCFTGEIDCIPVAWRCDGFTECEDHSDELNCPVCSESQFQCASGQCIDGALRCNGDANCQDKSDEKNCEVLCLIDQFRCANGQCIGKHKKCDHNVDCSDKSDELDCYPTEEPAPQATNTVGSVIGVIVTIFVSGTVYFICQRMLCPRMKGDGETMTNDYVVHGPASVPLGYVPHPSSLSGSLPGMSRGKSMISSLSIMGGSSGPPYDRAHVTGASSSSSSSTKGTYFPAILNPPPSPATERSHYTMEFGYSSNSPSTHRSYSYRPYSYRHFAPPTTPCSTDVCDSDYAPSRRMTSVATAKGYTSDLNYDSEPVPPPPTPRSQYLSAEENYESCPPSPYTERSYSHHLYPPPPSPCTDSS", "assay": "Competition for 125I-Mesd binding to cell surface LRP6", "method": "(§1) To examine whether Mesd binds with high affinity to most members of the LDLR family at the cell surface, we performed cell surface ligand binding experiments with cells stably transduced with LRP6 cDNA. Human HT1080 cells, which express undetectable levels of LRP6, were transduced with a viral vector alone (pLNCX2) or with vector containing LRP6 cDNA (Li, Y., Oncogene 23: 9129-9135, 2004) and used for ^125I-Mesd binding (FIG. 1A). ^125I-Mesd (5 nM) reached maximal binding after 2 hours incubation at 4° C. with LRP6-expressing HT1080 cells (FIG. 1A).\n(§2) Cells (2×10^5) were seeded into 12-well dishes 1 day prior to assay. Ligand-binding buffer (minimal Eagle's medium containing 0.6% BSA with a different concentration of radioligand, 0.6 ml/well) was added to cell monolayers, in the absence or the presence of 500 nM unlabeled RAP or 500 nM unlabeled Mesd, followed with incubation for 0-4 hours at 4° C. Thereafter, overlying buffer containing unbound ligand was removed, and cell monolayers were washed and lysed in low-SDS lysis buffer (62.5 mM Tris-HCl pH 6.8, 0.2% SDS, 10% v/glycerol) and counted.\nWe performed binding of 5 nM ^125I-Mesd (5 nM) to cell surface LRP6 in the presence of various concentrations of excess unlabeled RAP or 500 nM unlabeled Mesd (FIG. 8B). RAP inhibited ^125I-Mesd binding in a dose-dependent manner with ˜60% inhibition achieved with 500 nM RAP, whereas the same concentration of unlabeled Mesd inhibited >90% of ^125I-Mesd binding (FIG. 8B). […] The lower affinity of RAP to cell surface LRP6 may also contribute to its lower efficiency in inhibition of Mesd binding.\nIn FIG. 8A, binding of ^125I-RAP (5 nM) to LRP6-transduced HT1080 cells and the control cells was carried out for 4 hours at 4° C. in the absence (total) or presence of 500 nM RAP, or 500 nM Mesd. In FIG. 8B, binding of^125I-Mesd (5 nM) to LRP6-transduced HT1080 cells was carried out for 2 hours at 4° C. in the absence (total) or presence of various concentrations of RAP or 500 nM Mesd. (C) LRP6-mediated ^125I-Mesd (5 nM) degradation was carried out for 4 hours at 37° C. in the absence or presence of 500 nM Mesd or 500 nM RAP. Values are the means of triple determinations with the s.d. indicated by error bars.\nIn order to investigate the binding of Mesd polypeptide and an Mesd oligopeptide to either LRP5 or LRP6, binding assays were performed using ^125I-Mesd or ^125I-DKK1 (FIG. 10)."}, "LRP6 [2]": {"target": "T1, LRP6", "assay": "125I-Mesd cell surface binding to LRP6-transduced HT1080 cells", "method": "as §1\n(§3) (A) Time course of ^125I-Mesd (5 nM) binding to LRP6-transduced HT1080 cells and the control cells. Assay was carried out for the indicated periods at 4° C. in the absence (total) or presence of 500 nM Mesd (non-specific). (B) Saturation binding of ^125I-Mesd to LRP6-transduced HT1080 cells and the control cells. Assay was carried out at indicated concentrations for 3 hours at 4° C. in the absence (total) or presence (non-specific) of 500 nM Mesd. (C) Scatchard plots of data in B. All values are the average of triple determinations with the s.d. indicated by error bars.\nas §2\n(§4) To analyze the Mesd sequences that are required for Mesd to bind to mature LRP6 at the cell surface with high affinity, sequences were compared between mouse Mesd and its homologs from different species. […] We thus generated two truncated Mesd mutants lacking either the N-terminal region, MESD (12-195), or both the N-terminal and C-terminal regions, Mesd (12-155) (FIG. 3A). The ability of these mutants to bind to cell surface LRP6 was then assessed.\n(§5) In this example, a truncated Mesd mutant containing the last 45 amino acids of C-terminal region was generated (FIG. 3A) and its binding affinity for LRP6 was then analyzed. […] (A) Binding analyses of ^125I-Mesd and its mutant Mesd (150-195) (5 nM) to LRP6-transduced HT1080 cells and control cells. (B) Binding analyses of ^125I-Mesd and its mutant Mesd (150-195) (5 nM) to LRP6-transduced HT1080 cells. Assays were carried out for 3 hours at 4° C. in the absence or presence of 500 nM Mesd or its mutant. Values are the means of triple determinations with the s.d. indicated by error bars.\n(§6) LRP6-mediated Mesd uptake and degradation was investigated in the experiments illustrated in FIG. 7. (A) LRP6-mediated ^125I-Mesd (5 nM) degradation in LRP6-transduced HT1080 cells and control cells was carried out for 4 hours at 37° C. in the absence or presence of 500 nM Mesd. (B) ^125I-Mesd (5 nM) binding to LRP6-transduced HT1080 cells and the control cells was carried out for 4 hours at 4° C. in the absence or presence of 500 nM Mesd. Values are the means of triple determinations with the s.d. indicated by error bars."}, "LRP6 [3]": {"system": "LRP6", "assay": "125I-Mesd cell surface binding to LRP6-transduced HT1080 cells", "design": "species or system human", "details": "HT1080 cells transduced with vector alone", "method": "as §1, §3, §2, §4, §5, §6"}}}
{"molecule": "B1", "values": [{"measurement": "Inhibition of 125I-Mesd binding to cell surface LRP6", "setting": "LRP6 [1]; 500 nM unlabeled competitor, 125I-Mesd 5 nM, 2 hours at 4° C.", "value": "> 90", "unit": "%"}, {"measurement": "Effect of excess unlabeled protein on 125I-Mesd binding", "setting": "LRP6 [1]; 500 nM unlabeled, 125I-Mesd 5 nM, 4° C.", "value": "completely eliminated this binding"}, {"measurement": "Reduction of binding of 125I-Mesd to LRP6", "setting": "LRP6 [1]; FIG. 10C, compared with LRP5", "value": "even greater reduction"}, {"measurement": "125I-Mesd binding", "setting": "LRP6 [2]; 5 nM, 4 hours at 4° C.", "value": 1320, "unit": "fmoles/mg cell protein"}, {"measurement": "Concentration at which Mesd specific binding saturates", "setting": "LRP6 [2]; LRP6-transduced HT1080 cells, 3 hours at 4° C.", "value": "> 6.4", "unit": "nM"}, {"measurement": "125I-Mesd binding to control cells (pLNCX2)", "setting": "LRP6 [3]", "value": "No significant"}]}
